Changes are numbered by the printed parent chain.
What was measured:
[1] = biological target: T1, chimeric CD45RB (full length human CD45RB with the macaque RB exon) transiently expressed in CHO cells (human; macaque, UniProt P08575-9 26-33; P08575-9 81-1192); test: transiently transfected CHO cells
T1 construct: whole chimeric protein on CHO cells; also called Macaque CD45RB CHO
T1 sequence: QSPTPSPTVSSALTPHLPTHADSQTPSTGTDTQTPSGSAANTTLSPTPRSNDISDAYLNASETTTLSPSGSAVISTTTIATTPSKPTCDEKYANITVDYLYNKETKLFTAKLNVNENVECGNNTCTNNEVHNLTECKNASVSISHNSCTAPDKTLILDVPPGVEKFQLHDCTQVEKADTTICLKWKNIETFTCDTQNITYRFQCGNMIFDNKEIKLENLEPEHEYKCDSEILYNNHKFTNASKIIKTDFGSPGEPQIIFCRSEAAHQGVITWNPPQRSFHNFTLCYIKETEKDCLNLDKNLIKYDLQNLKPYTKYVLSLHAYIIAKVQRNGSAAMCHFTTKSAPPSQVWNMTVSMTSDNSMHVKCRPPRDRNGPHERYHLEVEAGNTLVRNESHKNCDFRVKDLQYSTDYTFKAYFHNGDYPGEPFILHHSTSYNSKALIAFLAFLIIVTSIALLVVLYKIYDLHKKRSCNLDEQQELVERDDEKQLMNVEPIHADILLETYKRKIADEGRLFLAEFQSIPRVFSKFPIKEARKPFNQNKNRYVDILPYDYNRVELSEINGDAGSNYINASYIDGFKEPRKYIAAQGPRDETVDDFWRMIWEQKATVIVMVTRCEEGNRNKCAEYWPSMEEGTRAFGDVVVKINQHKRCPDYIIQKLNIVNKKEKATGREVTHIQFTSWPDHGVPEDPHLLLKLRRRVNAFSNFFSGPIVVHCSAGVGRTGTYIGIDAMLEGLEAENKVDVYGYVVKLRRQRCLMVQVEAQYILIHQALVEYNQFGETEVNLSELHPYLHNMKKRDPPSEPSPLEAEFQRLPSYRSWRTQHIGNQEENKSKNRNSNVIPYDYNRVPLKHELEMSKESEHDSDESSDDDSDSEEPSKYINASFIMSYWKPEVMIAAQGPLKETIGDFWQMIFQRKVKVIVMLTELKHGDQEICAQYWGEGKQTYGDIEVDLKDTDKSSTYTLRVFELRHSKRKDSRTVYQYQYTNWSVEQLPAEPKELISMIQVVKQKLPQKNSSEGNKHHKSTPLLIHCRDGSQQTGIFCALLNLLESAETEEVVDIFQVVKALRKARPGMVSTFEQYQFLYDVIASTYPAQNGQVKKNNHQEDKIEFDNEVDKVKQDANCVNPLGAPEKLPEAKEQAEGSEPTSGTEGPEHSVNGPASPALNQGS

Human 18 mer peptide = biological target: T2, Human 18 mer peptide (human); test: recombinant antibody on peptide
T2 construct: synthetic peptide from the RB exon
T2 peptide: VSSVQTPHLPTHADSQTPC

Human 20.1 peptide = biological target: T3, Human 20.1 peptide (human); test: recombinant antibody on peptide
T3 construct: synthetic peptide from the RB exon
T3 peptide: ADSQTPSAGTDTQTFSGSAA

[2] = biological target: T4, Macaque 46 mer peptide (RB exon of macaque CD45RB) (macaque); test: recombinant antibody on peptide
T4 construct: synthetic peptide
T4 peptide: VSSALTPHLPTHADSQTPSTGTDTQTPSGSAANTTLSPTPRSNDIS

Human 20.2 peptide = biological target: T5, Human 20.2 peptide (human); test: recombinant antibody on peptide
T5 construct: synthetic peptide from the RB exon
T5 peptide: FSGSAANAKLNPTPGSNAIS

[3] = biological target: T6, Human 46 mer peptide (RB exon of human CD45) (human); test: recombinant antibody on peptide
T6 construct: synthetic peptide; also called CD45RB 46 mer
T6 peptide: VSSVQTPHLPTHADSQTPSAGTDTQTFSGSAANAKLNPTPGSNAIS

Measured: binding result

B1: AB-CD45RB-XG2-525 (antibody, human IgG2, V domains shown)
VH: QVQLVESGGGVVQPGRSLRVSCAASGFTFSNYGMHWVRQAPGKGLEWVAVIWYDGSKKFYADSVKGRFTISRDNSQNTLSLQMSSLRAEDTAVYYCARGGGDFDFWGQGTLVTVSS
VL: KIVMTQSPATLSVSPGERATLSCRASQSLSGSYLAWYQQRPGQAPRLLIYGASTRATGIPARFSGSGSGTEFTLTISSLQSEDFAVYYCQQYNKWPPLTFGGGTKVEIK
notes: recombinant human IgG2 kappa; also called sc525
no binding: [1] | Human 18 mer peptide | Human 20.1 peptide | [2] | Human 20.2 peptide

B2: AB-CD45RB-XG2-439 (antibody, human IgG2, V domains shown)
VH: B1 VH with V20L, Q76K, T78M, L79Q, S80Y, S84D, F105Y, T110I
VL: B1 VL with K1E, S28N, S32K, R40K, R46S, L47R, A52T, I59V, F84S, K94N
notes: recombinant human IgG2 kappa; also called sc439
no binding: [1] | Human 18 mer peptide | Human 20.1 peptide | [2] | Human 20.2 peptide

B3: AB-CD45RB-XG2-446 (antibody, human IgG2, V domains shown)
VH: B1 VH with R16K, V20L, S30R, Q76K, S80N, S84N, A97V, F105Y
VL: EIVMTQSPATLSVSLGERATLSCRASQNISGNYLAWYQQRPGQAPRRLIYSASSRATGIPDRFSGSGSGTEFTLTISSLQSEDFAVYYCQQYNNWPPLTFGGGTKVEMK
notes: recombinant human IgG2 kappa; also called sc446
no binding: [1] | Human 18 mer peptide | Human 20.1 peptide | [2] | Human 20.2 peptide

B4: AB-CD45RB-XG2-606 (antibody, human IgG2, V domains shown)
VH: B1 VH with V5A, V20L, V50I, Q76N, S80Y, Q82H, M83V, S84N, A88V, F103I
VL: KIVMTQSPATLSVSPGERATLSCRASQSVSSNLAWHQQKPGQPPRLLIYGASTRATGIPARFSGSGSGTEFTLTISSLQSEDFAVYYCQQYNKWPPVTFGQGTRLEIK
notes: recombinant human IgG2 kappa; also called sc606
no binding: [1] | Human 18 mer peptide | Human 20.1 peptide | [2] | Human 20.2 peptide

B5: AB-CD45RB-XG2-593 (antibody, human IgG2, V domains shown)
VH: B1 VH
VL: B1 VL with L29V, S32N, N93G
notes: recombinant human IgG2 kappa; also called sc593
no binding: [1] | Human 18 mer peptide | Human 20.1 peptide | [2] | Human 20.2 peptide

B6: AB-CD45RB-XG2-026 (antibody, human IgG2, V domains shown)
VH: B1 VH with V20L, K57N, F59Y, Q76K, S80Y, S84N, F105Y
VL: B1 VL with K1E, A19V, S28T, L29I, R40K, S53F, K94N, K105R
notes: recombinant human IgG2 kappa; also called sc026; 1G10 (sc026)
no binding: [1] | Human 18 mer peptide | Human 20.1 peptide | [2] | Human 20.2 peptide

B7: AB-CD45RB-XG2-713 (antibody, human IgG2, V domains shown)
VH: B1 VH with V20L, S75F, Q76E, N77K, S80Y, S84N, F105Y
VL: B1 VL with K1E, R40K, G51S, K94N
notes: recombinant human IgG2 kappa; also called sc713
no binding: [1] | Human 18 mer peptide | Human 20.1 peptide | [2] | Human 20.2 peptide

B8: AB-CD45RB-XG2-502 (antibody, human IgG2, V domains shown)
VH: B1 VH with G42D
VL: B1 VL with L29V, S32N, Q39R, N93G
notes: recombinant human IgG2 kappa; also called sc502
no binding: [1] | Human 18 mer peptide | Human 20.2 peptide

B9: AB-CD45RB-XG2-493 (antibody, human IgG2, V domains shown)
VH: B1 VH
VL: B1 VL with A9V, S26C, L29V, N93G
notes: recombinant human IgG2 kappa; also called sc493
no binding: [1] | Human 18 mer peptide | Human 20.1 peptide | [2] | Human 20.2 peptide

B10: AB-CD45RB-XG2-487 (antibody, human IgG2, V domains shown)
VH: B1 VH with A23E
VL: B1 VL with L29V, S32N, N93G
notes: recombinant human IgG2 kappa; also called sc487
no binding: [1] | Human 18 mer peptide | Human 20.1 peptide | [2] | Human 20.2 peptide

B11: AB-CD45RB-XG2-636 (antibody, human IgG2, V domains shown)
VH: QVHLVESGGGLVKPGGSLRLSCAASGFTFINYYMTWIRQAPGKGLEWVSYISLSGSTIYYADSVKGRFTISRDNAKNSLFLQMNSLRAEDTAVYYCARRAATVTTFDYWGQGTLVTVSS
VL: EIVMTQSPATLSVSPGERATLSCRASQSVRSNLAWSQQKPGQAPRLLIYGASTRATGIPARFSGSGSGTEFTLTISSLQSEDFAVYYCQQYNNWPLTFGGGTKVEIK
notes: recombinant human IgG2 kappa; also called sc636
no binding: Human 18 mer peptide | [3] | Human 20.1 peptide | [2] | Human 20.2 peptide

B12: AB-CD45RB-XG2-662 (antibody, human IgG2, V domains shown)
VH: QVQLVESGGDLVKPGGSLRLSCAASGFSFSGYYLSWIRQAPGKGLEWVSYISLSGSFIKYADSVKGRFTISRDNAKKTLHLQMNSLRAEDTAVYYCARRTGTTTVFDYWGQGTLVTVSS
VL: B11 VL with I2V, R30N, S36Y, K39R, A55V
notes: recombinant human IgG2 kappa; also called sc662
no binding: Human 18 mer peptide | [3] | Human 20.1 peptide | [2] | Human 20.2 peptide

B13: AB-CD45RB-XG2-569 (antibody, human IgG2, V domains shown)
VH: QVQLQESGPGLVKPSETLSLTCTVSGGSISGYYWSWIRQPAGKGLEWIGRIHTTGKTAYNSSLKSRVIMSVDTSKNLFSLKLTSVTAADTAVYYCARDYDFLTGYFDYWGQGTLVTVSS
VL: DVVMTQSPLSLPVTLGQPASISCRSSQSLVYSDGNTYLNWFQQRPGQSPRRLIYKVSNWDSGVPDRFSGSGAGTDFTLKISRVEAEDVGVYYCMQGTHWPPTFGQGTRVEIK
notes: recombinant human IgG2 kappa; also called sc569
no binding: Human 20.2 peptide

B14: AB-CD45RB-XG2-475 (antibody, human IgG2, V domains shown)
VH: AVQLLESGGGLIQPGGSLRLSCAASGFTFSSYAMSWVRQAPGKGLEWVSAISGSGGSTFYADSVRGRFTISRDNSKNTLYLQMNSLRVEDTAVYYCAKEVMGPIFFDYWGQGTLVTVSS
VL: EIVLTQSPGTLSLSPGERATLSCRASQSIISSALAWYQQKPGQAPRLLIYGASSRATGIPDRFSGSGSGTDFTLTISRLEPEDFAVYHCQQYGSTPLTFGGGTKVEIK
notes: recombinant human IgG2 kappa; also called sc475
no binding: Human 20.2 peptide

B15: AB-CD45RB-XG2-275 (antibody, human IgG2, V domains shown)
VH: QVQLVESGGGVVQPGRSLRLSCAASGFTFSKFGMHWVRQAPDKGLEWVAVIWYDGTYKYYADSVKGRFTISRDNSKNTLYLQMNSLRAEDTAVYYCARGGGSFDYWGQGTLVTVSS
VL: DIVMTQTPLSLSVTPGQPASISCKSSQSLLHSDGKTFLYWYLQKPGQPPQLLIYEVSNRFSGVPDRFSGSGSGIDFTLKISRVEAEDVGVYYCMQSIQFPITFGQGTRLEIK
notes: recombinant human IgG2 kappa; also called sc275
no binding: Human 20.2 peptide

B16: AB-CD45RB-XG2-416 (antibody, human IgG2, V domains shown)
VH: B15 VH with K31R, F32Y, D42G, T56S, Y57N, M83V
VL: B15 VL with S68G, I74T, K112E
notes: recombinant human IgG2 kappa; also called sc416
no binding: Human 20.2 peptide

B17: AB-CD45RB-XG2-413 (antibody, human IgG2, V domains shown)
VH: B15 VH with K31S, F32Y, T56S
VL: B15 VL with S32R, I74T
notes: recombinant human IgG2 kappa; also called sc413
no binding: Human 20.2 peptide

B18: AB-CD45RB-XG2-324 (antibody, human IgG2, V domains shown)
VH: B15 VH with T56S, V93A
VL: B15 VL
notes: recombinant human IgG2 kappa; also called sc324; 39E11 (sc324)
no binding: Human 20.2 peptide

Reference: US20030232009A1 (Amgen, published 2003)
